Several values for one entry are separate records, joined by “and”; a condition that tells them apart may be missing. Identical values can stand only once.

Here are results for 1 substance from PMC7515635.

This experiment concerns the target HIS6-GABARAP (human) (UniProt O95166). Kind of experiment: native MS; proteins exchanged into ammonium acetate, nanoelectrospray, Synapt G2Si; C53 1-5 µM or IDR 2.5 µM with 5-20 µM ATG8A or GABARAP.

Chain of HIS6-GABARAP (human) (O95166 whole entry): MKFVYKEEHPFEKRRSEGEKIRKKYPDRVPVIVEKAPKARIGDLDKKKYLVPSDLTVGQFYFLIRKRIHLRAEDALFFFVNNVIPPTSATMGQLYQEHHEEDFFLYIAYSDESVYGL
Chain of HIS6-HsC53 (Q96JB5 whole entry): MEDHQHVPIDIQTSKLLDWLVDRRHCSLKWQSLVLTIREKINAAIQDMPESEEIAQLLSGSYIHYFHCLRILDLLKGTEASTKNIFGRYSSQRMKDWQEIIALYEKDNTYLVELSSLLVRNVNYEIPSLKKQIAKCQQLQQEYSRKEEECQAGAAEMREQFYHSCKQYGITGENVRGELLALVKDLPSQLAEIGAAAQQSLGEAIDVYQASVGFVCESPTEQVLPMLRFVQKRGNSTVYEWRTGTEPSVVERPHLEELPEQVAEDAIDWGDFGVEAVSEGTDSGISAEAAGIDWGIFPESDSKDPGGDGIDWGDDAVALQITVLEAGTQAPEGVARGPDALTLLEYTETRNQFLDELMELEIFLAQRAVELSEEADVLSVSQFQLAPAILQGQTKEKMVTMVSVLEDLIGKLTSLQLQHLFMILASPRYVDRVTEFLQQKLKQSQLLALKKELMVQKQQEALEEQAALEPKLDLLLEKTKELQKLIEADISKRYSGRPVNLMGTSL

Turning to “HIS6-HsC53 (from UniProt Q96JB5 1-506) (natural protein)”, the stoichiometry N (GABARAP per HsC53) is 1 and 2.
